In patent US20120077731A1 (Ablynx, published 2012):
“And” between values parts separate entries of the source, which are not always exact repeats. Identical values can stand only once. Each block holds one binder with its values, some of them ahead of it.

B2: Cyno IL-6R (receptor, cynomolgus monkey)
chain: EVARGVLTSLPGDSVTLTCPGGEPEDNATVHWVLRKPAEGSHLSRWAGVGRRLLLRSVQLHDSGNYSCYRAGRPAGTVHLLVDVPPEEPQLSCFRKSPLSNVVCEWGPRSTPSPTTKAVLLVRKFQNSPAEDFQEPCQYSQESQKFSCQLAVPEGDSSFYIVSMCVASSVGSKLSKTQTFQGCGILQPDPPANITVTAVARNPRWLSVTWQDPHSWNSSFYRLRFELRYRAERSKTFTTWMVKDLQHHCVIHDAWSGLRHVVQLRAQEEFGQGEWSEWSPEAMGTPWTESRSPPAENEVSTPTQAPTTNKDDDNILSGDSANATSLPVQDSSSVPLP
notes: also called cynomolgus monkey IL-6R; recombinant cyno sIL-6R

Assays:
[1] = target: T1, Human soluble IL-6R (human, UniProt P08887 20-358); experiment: Biacore T100
T1 construct: Soluble recombinant form; biotinylated in some assays; also called hIL-6R; human IL-6R
T1 sequence (looked up): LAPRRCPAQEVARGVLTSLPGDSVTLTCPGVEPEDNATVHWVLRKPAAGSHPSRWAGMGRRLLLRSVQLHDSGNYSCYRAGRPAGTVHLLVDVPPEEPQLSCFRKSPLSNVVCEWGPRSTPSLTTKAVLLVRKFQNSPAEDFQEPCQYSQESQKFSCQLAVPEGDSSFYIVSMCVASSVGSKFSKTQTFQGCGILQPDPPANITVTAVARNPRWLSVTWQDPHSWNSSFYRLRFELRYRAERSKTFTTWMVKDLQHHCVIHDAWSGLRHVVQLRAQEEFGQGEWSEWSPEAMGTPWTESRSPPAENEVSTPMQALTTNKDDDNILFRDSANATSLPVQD

[2] = target: T2, Human membrane IL-6R on cells (human, UniProt P08887 20-468); experiment: cell-based or functional assay
T2 sequence (looked up): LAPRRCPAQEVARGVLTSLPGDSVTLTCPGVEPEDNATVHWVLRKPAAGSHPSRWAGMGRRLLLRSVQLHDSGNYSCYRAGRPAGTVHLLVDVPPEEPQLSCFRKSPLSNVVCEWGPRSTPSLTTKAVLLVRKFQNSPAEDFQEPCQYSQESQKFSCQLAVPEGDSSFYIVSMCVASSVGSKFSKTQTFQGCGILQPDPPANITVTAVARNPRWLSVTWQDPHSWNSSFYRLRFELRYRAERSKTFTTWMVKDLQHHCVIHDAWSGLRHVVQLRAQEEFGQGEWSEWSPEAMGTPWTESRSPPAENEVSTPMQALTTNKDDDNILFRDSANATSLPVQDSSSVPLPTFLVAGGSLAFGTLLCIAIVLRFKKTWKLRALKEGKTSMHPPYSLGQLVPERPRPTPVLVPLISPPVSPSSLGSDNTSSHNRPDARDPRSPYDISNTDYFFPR

[3] = target: T1, Human soluble IL-6R; experiment: Biacore T100, IL-6R covalently coupled
[4] = target: T1, Human soluble IL-6R; experiment: Biacore T100, IL-6R captured via mAb BN-12
[5] = target: B2; experiment: SPR Biacore 3000, cyno IL-6R amine-coupled to CM5
Method: Remaining reactive groups were inactivated. […] Each sample was injected for 4 min at a flow rate of 45 μl/min to allow for binding to chip-bound antigen. Next, binding buffer without Nanobody was sent over the chip at the same flow rate to allow for dissociation of bound Nanobody.

[6] = target: T1, Human soluble IL-6R; experiment: SPR Biacore 3000, human IL-6R amine-coupled to CM5
Method: Remaining reactive groups were inactivated. Nanobody binding was assessed at various concentrations ranging from 0.5 to 50 nM. Each sample was injected for 4 min at a flow rate of 45 μl/min to allow for binding to chip-bound antigen. Next, binding buffer without Nanobody was sent over the chip at the same flow rate to allow for dissociation of bound Nanobody.

[7] = target: T3, Human plasma sIL-6R (human, UniProt P08887 20-355, limits assumed); experiment: plasma potency ELISA, human plasma, IL-6 at EC50 (50 ng/mL)
T3 construct: also called plasma-derived human IL-6R
T3 sequence (looked up): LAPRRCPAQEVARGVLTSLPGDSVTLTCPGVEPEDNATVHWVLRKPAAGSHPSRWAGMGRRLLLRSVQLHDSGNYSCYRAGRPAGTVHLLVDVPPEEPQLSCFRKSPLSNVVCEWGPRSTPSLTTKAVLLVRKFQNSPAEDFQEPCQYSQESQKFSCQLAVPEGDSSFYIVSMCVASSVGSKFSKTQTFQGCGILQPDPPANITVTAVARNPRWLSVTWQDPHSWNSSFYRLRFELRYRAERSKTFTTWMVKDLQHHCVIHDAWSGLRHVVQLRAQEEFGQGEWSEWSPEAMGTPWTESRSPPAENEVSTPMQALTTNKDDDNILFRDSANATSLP

[8] = target: T3, Human plasma sIL-6R; experiment: plasma potency ELISA, human plasma, IL-6 at EC95 (885 ng/mL)
[9] = target: T4, Cyno plasma sIL-6R (cynomolgus monkey, UniProt A0A2K5WN54 60-396); experiment: plasma potency assay, cyno plasma, 2.4 nM IL6; blocked ligand IL-6
T4 construct: also called cynomolgus sIL-6R
T4 sequence: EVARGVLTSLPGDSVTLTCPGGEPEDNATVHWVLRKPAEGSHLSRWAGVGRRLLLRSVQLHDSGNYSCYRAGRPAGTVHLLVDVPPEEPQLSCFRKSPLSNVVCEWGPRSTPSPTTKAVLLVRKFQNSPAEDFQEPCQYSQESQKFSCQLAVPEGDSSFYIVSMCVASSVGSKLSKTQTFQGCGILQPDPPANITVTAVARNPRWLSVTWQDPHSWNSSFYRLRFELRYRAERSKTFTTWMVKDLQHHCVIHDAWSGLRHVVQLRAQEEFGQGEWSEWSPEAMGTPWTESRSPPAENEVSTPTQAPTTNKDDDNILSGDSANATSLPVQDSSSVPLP
Method: (§1) All 5 affinity matured Nanobodies and the sequence optimized Nanobody were also tested in a plasma potency assay. […] TMB was used as substrate.

[10] = target: T3, Human plasma sIL-6R; experiment: plasma potency assay, human plasma, 42 nM IL6; blocked ligand IL-6
Method: as §1

[11] = target: T3, Human plasma sIL-6R; experiment: plasma potency assay, human plasma, 2.4 nM IL6; blocked ligand IL-6
Method: as §1

[12] = target: T1, Human soluble IL-6R; experiment: SPR (Biacore), binding curves at several concentrations of purified Nanobody on IL-6R
[13] = target: T3, Human plasma sIL-6R; experiment: plasma potency assay, human plasma, 42 nM IL6; sIL-6R captured on BN-12, bound IL-6 detected; blocked ligand IL-6
[14] = target: T1, Human soluble IL-6R; experiment: Alphascreen IL-6/IL-6R competition with purified Nanobody; row EC50 of the table, axis [inhibitor], M; blocked ligand IL-6
[15] = target: T4, Cyno plasma sIL-6R; experiment: plasma potency ELISA, cyno plasma + human IL-6 50 ng/mL; sIL-6R captured on BN-12, bound IL-6 detected; blocked ligand IL-6
[16] = target: T3, Human plasma sIL-6R; experiment: plasma potency ELISA, human plasma + human IL-6 50 ng/mL; sIL-6R captured on BN-12, bound IL-6 detected; blocked ligand IL-6
[17] = target: T4, Cyno plasma sIL-6R; experiment: plasma potency assay, cyno plasma ([IL6R]: ~0.4 nM, [IL6]: 2.4 nM printed); sIL-6R captured on BN-12, bound IL-6 detected; blocked ligand IL-6
[18] = target: T3, Human plasma sIL-6R; experiment: plasma potency assay, human plasma ([IL6R]: ~0.4 nM, [IL6]: 2.4 nM printed); sIL-6R captured on BN-12, bound IL-6 detected; blocked ligand IL-6
[19] = target: T5, PMP20A11; experiment: competition ELISA: IL6R20A11 (0.4 nM) pre-incubated with a series of recombinant sIL-6R; free IL6R20A11 captured on biotinylated human sIL-6R on neutravidin
T5 construct: also called IL6R20A11; IL6R300; not shown: c-myc and (His)6 tags

[20] = target: T2, Human membrane IL-6R on cells; experiment: cell-based or functional assay; remark: listed apart in the source
[21] = target: T2, Human membrane IL-6R on cells; experiment: cell-based or functional assay; remark: listed apart in the source
[22] = target: T2, Human membrane IL-6R on cells; experiment: cell-based or functional assay; remark: listed apart in the source
[23] = target: T1, Human soluble IL-6R; experiment: Biacore off-rate, periplasmic extract
[24] = target: T1, Human soluble IL-6R; experiment: Biacore off-rate, periplasmic extracts
[25] = target: T1, Human soluble IL-6R; experiment: Biacore, binding to IL-6R (parent value)
[26] = target: T1, Human soluble IL-6R; experiment: SPR Biacore 3000, IL-6R amine-coupled to CM5
Method: (§2) Nanobodies were injected at 5 different concentrations between 1 and 50 nM. Flow rate was 45 μl/min in all experiments. Association and dissociation phase were 3 and 10 min, respectively. The chip was regenerated using Glycine/HCl pH 1.5.

[27] = target: T1, Human soluble IL-6R; experiment: Alphascreen, inhibition of bio-IL-6 binding to IL-6R
Method: (§3) Finally streptavidin donor beads were added and after 1 hour incubator the plate was read on the Envision microplate reader.

[28] = target: T1, Human soluble IL-6R; experiment: summary table C-13 of Nanobody characteristics, Kd on IL-6R
Method: as §2

[29] = target: T1, Human soluble IL-6R; experiment: inhibition of the IL-6/IL-6R interaction, summary table C-13
Method: as §3

[30] = target: T1, Human soluble IL-6R; experiment: competition for IL-6R, competitor reference Fab, summary table C-13
[31] = target: T1, Human soluble IL-6R; experiment: Alphascreen, 100 nM Nanobody, 0.4 nM bio-IL-6R; competitor: reference Fab
[32] = target: T6, Mouse IL-6R (mouse, UniProt P22272 20-364, limits assumed); experiment: ELISA: plate coated with 1 µg/ml mouse IL-6R, 500 nM Nanobody, anti-myc + anti-mouse-HRP
T6 construct: also called mouse sIL-6R
T6 sequence (looked up): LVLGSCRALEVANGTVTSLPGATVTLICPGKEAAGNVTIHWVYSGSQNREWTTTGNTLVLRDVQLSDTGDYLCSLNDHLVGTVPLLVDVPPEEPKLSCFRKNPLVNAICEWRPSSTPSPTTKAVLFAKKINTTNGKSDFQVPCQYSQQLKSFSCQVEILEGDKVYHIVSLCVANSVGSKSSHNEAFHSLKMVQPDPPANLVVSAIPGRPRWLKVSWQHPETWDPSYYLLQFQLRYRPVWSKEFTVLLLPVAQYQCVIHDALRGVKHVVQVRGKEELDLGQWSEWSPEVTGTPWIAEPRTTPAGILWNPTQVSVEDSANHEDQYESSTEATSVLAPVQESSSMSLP
Method: Detection was performed with anti-myc and anti-mouse-HRP as first and second antibody respectively.

[33] = target: T1, Human soluble IL-6R; experiment: Alphascreen IL-6/IL-6R competition (IL-6R 0.3 nM, bio-IL-6 3 nM); row EC50 of the fit table, axis [competitor], M; blocked ligand IL-6

Kd [1]: 3.8 nM
IC50 values (nM), XG-1 assay [2]: 26 nM
koff [3]: 0.0038 s⁻¹
kon [4]: 1e+06 M⁻¹ s⁻¹
Kd [5]: 12 nM
koff [5]: 0.00197 s⁻¹
kon [5]: 165000 M⁻¹ s⁻¹
Kd [6]: 4 nM
koff [6]: 0.00235 s⁻¹
kon [6]: 600000 M⁻¹ s⁻¹
IC50 [7]: 2.61 nM
IC50 [8]: 66.2 nM
IC50 [9]: 0.9 nM
IC50 [10]: 24.8 nM
IC50 [11]: 1.9 nM
Kd [12]: 4.3 nM
IC50 [13]: 61.5 nM
IC50 [14]: 0.147 nM
IC50 (read off the curve) [15]: ~0.1 nM
IC50 (read off the curve) [16]: ~0.7 nM
IC50 [17]: 2.99 nM
IC50 [18]: 4.93 nM
B1: IL6R65 (VHH)
VHH: EVQLVESGGGLVQPGGSLRLSCAASGSIFKVNAMGWYRQAPGKGRELVAGIISGGSTNYADSVKGRFTISRDNAKNTLYLQMNSLRPEDTAVYYCAFVTTNSDYDLGRDYWGQGTLVTVSS
notes: also called ILR65; parent Nanobody

Binder: B2
IC50 (read off the curve) [19]: ~3 ng/mL

IC50 (nM) + HSA, XG-1 cell proliferation [20]: 1.3 nM
IC50 (nM), XG-1 cell proliferation [20]: 1.4 nM
IC50 (nM), TF1 cell proliferation [21]: 5.2 nM
IC50 (nM) XG-1 [22]: 1.4 nM
IC50 values (nM), XG-1 assay [2]: 1.4 nM
koff [23]: 0.000178 s⁻¹
koff [24]: 0.00021 s⁻¹
Kd [25]: 0.7 nM
Kd [26]: 0.5 nM and 0.8 nM
koff [26]: 0.000121 s⁻¹ and 0.000109 s⁻¹ and 0.000178 s⁻¹
kon [26]: 231000 M⁻¹ s⁻¹ and 137000 M⁻¹ s⁻¹
IC50 [27]: 0.0477 nM
Kd [28]: 0.5 nM
IC50 [29]: 0.05 nM
Ref Fab competition (%) [30]: 25%
Residual reference-Fab binding to IL-6R (%) [31]: 25%
binding result [32]: no binding (tested: 500 nM)
IC50 [14]: 0.0505 nM
IC50 [33]: 0.0644 nM
B3: IL6R13 (VHH)
VHH: EVQLVESGGGLVQPGGSLRLSCAASGFTFDDYGMSWVRQAPGRATEWVSAISWNGNNTYYTESMKGRFTISRDNAKNTVYLQMNSLKPEDTAVYYCVKGSTAIVGVPPTYPDEYDYWGQGTQVTVSS
notes: also called PMP35H4; not shown: C-terminal c-myc and (His)6 tags
